Patent publication US20180289790A1 (Bristol-Myers Squibb, published 2018)
One block for each molecule: values may come before it.

Columns and labels:
[1] = target: human ICOS (huICOS), on activated human CD4+ T cells (human) (UniProt Q9Y6W8); assay: cell-based or functional assay
hCD32a-R131 (human) = hCD32a-R131 (human) (UniProt P12318); assay: method not stated (Table 9, 'µM Kd')
hCD32a-H131 (human) = hCD32a-H131 (human) (UniProt P12318); assay: method not stated (Table 9, 'µM Kd')
hCD64 (human) = hCD64 (human) (UniProt P12314); assay: method not stated (Table 9, 'µM Kd')
Sequence of hCD64 (human) (P12314 16-288 limits assumed): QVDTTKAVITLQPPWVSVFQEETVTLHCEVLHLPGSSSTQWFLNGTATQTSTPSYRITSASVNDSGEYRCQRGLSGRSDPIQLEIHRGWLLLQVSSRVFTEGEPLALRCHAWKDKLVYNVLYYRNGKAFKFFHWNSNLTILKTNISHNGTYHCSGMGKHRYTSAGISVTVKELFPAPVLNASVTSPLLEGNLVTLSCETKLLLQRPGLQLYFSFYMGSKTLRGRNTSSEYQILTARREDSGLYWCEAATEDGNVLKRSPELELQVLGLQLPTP

hCD16a-V158 (human) = hCD16a-V158 (human) (UniProt P08637); assay: method not stated (Table 9, 'µM Kd')
Sequence of hCD16a-V158 (human) (P08637 17-208 F176V limits assumed): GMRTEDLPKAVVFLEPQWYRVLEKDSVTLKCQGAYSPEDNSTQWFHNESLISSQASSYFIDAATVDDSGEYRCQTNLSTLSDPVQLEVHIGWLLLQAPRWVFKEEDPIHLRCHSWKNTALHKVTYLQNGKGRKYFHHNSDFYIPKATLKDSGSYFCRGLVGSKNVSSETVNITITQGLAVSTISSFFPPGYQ

hCD16a-F158 (human) = hCD16a-F158 (human) (UniProt P08637); assay: method not stated (Table 9, 'µM Kd')
Sequence of hCD16a-F158 (human) (P08637 17-208 limits assumed): as the sequence (P08637 17-208 F176V limits assumed) above, with V160F counted along it

hCD32b (human) = hCD32b (human) (UniProt P31994); assay: method not stated (Table 9, 'µM Kd')
Sequence of hCD32b (human) (P31994 43-217 limits assumed): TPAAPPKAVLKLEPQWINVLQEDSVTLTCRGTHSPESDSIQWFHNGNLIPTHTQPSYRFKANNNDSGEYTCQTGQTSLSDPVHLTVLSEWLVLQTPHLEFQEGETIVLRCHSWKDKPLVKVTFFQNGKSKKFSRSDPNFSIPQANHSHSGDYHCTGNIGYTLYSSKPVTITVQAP

huICOS/Fc [2] = target: T1, huICOS/Fc (human, UniProt Q9Y6W8 21-140); assay: SPR binning: reference antibody on chip, test antibody pre-incubated with huICOS/Fc
T1 construct: also called huICOS polypeptide construct; human ICOS antigen; not shown: Fc part
T1 sequence: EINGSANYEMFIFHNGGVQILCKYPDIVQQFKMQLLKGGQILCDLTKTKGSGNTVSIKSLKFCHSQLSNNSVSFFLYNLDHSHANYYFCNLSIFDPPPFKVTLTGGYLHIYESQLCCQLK

huICOS/Fc [3] = target: T1, huICOS/Fc; assay: HDX-MS, ICOS-Fc mixed with mAb at 1:1 ratio
Description: ICOS-Fc was mixed with mAbs at 1:1 ratio and HDX-MS was run for one minute, 10 minutes, 4 hours in duplicate.

[4] = target: T2, human ICOS Fc (R&D Systems, 169-CS-050) (human, UniProt Q9Y6W8 21-140); assay: SPR (Biacore T200), 37 °C, human ICOS Fc captured by anti-hFc on a CM4 chip, Fab as analyte, 1:1 Langmuir model
T2 construct: Bought construct; also called human ICOS with an Fc tag; not shown: Fc tag
T2 sequence: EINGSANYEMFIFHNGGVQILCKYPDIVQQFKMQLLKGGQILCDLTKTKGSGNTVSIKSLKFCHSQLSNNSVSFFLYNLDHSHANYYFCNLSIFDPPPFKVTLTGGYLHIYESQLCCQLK

Sequence of hCD32a-R131 (human) (P12318 36-218 H167R limits assumed): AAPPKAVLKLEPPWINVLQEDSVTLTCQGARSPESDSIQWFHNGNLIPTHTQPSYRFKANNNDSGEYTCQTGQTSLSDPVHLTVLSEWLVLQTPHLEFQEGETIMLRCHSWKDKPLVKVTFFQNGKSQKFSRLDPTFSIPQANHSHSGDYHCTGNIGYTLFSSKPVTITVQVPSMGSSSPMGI
Sequence of hCD32a-H131 (human) (P12318 36-218 limits assumed): as the sequence (P12318 36-218 H167R limits assumed) above, with R132H counted along it

EC50 of interferon-gamma secretion, CHO-OKT3-CD32 / CD4+CD25- T cell co-culture [1]: 0.018 µg/mL
Molecule: ICOS.4 (chimeric antibody with the variable regions of hamster antibody C398.4A and human IgG1f constant regions)

Kd (hCD32a-R131 (human)): 960 µM
Kd (hCD32a-H131 (human)): 530 µM
Kd (hCD64 (human)): 0.2 µM
Kd (hCD16a-V158 (human)): 97 µM
Kd (hCD16a-F158 (human)): 200 µM
Kd (hCD32b (human)): 3400 µM
Molecule: human IgG1f (wild type), as in Table 9 (antibody)

Kd (hCD32a-R131 (human)): 31 µM
Kd (hCD32a-H131 (human)): 650 µM
Kd (hCD64 (human)): 0.2 µM
Kd (hCD32b (human)): 87 µM
Molecule: human IgG1f-S267E, as in Table 9 (antibody)

binding result (huICOS/Fc [2]): binds
B1: 17C4 (antibody, V domains shown)
VH: QVTLRESGPALVKPTQTLTLTCTFSGFSLSTSGMCVSWIRQPPGKALEWLALIDWDDDKFYSTSLKTRLTISKDTSKNQVVLTMTNMDPVDTATYYCARMSTPTYYGLDVWGQGTTVTVSS
VL: DIQMTQSPSSLSASVGDRVTITCRASQGISSWLAWYQQKPEKAPKSLIYAASSLQSGVPSRFSGSGSGTDFTLTISSLQPEDFATYYCQQYNSYPLTFGGGTKVEIK
notes: Fully human hybridoma antibody

binding result (huICOS/Fc [2]): binds
B2: 3E8 (antibody, V domains shown)
VH: QVQLVESGGGVVQPGMSLRLSCAASGFTFSTYGMQWVRQAPGKGLEWVTVIWHDGSHKDYADSVKGRFTISRDNSKNTMYLQMNSLRAEDTAVYYCARDRQTGEGYFDFWGQGTLVTVSS
VL: DIQMTQSPSSLSASVGDRVTITCRASQGISSWLAWYQQKPEKAPKSLIYAASSLQSGVPSRFSGSGSGTDFTLTISSLQPEDFATYYCQQYNSYPYTFGQGTKLEIK
notes: as for B1

binding result (huICOS/Fc [3]): binds
B3: 9D5 (antibody, V domains shown)
VH: QITLKESGPTLVKPTQTLTLTCTFSGFSLGTSGLGVGWIRQPPGKALEWLAFIYWDDDKRYSPSLKSRLTITKDTSKNQVVLTMTNMDPVDTATYYCAHRRGFFDYWGQGTLVTVSS
VL: DIQMTQSPSSLSASVGDRVTITCRASQGISSWLAWYQQKPEKAPKSLIYAASSLQSGVPSRFSGSGSGTDFTLTISSLQPEDFATYYCQQYNSYPLTFGGGTKVEIK
notes: as for B1

binding result (huICOS/Fc [2]): binds
B4: IgG-2644 (antibody, V domains shown)
VH: EVQLLESGGGLVQPGGSLRLSCEASGFIFKYYAMSWVRQAPGKGLEWVSGISGSGGSTYYADSVKGRFTISRDNSKHTLYLQMNSLRAEDTAVYYCAKDGDFDWIHYYYGMDVWGQGTTVTVSS
VL: AIQLTQSPSSLSASVGDRVTITCRASQGISSALAWYQQKPGKAPKLLIYDASSLESGVPSRFSGSGSGTDFTLTISSLQPEDFATYYCQQFNSYPHTFGGGTKVEIKR
notes: Human antibody from mRNA display, cloned into IgG expression vectors

Kd [4]: 0.052 to 0.065 µM
B5: ICOS.33 IgG1f S267E Fab fragment (Lot PC-1804-04) (Fab, V domains shown)
VH: EVQLVESGGGLVKPGGSLRLSCAASGFTFSDYFMHWVRQAPGKGLEWVGVIDTKSFNYATYYSDLVKGRFTISRDDSKNTLYLQMNSLKTEDTAVYYCTATIAVPYYFDYWGQGTLVTVSS
VL: DIQMTQSPSSLSASVGDRVTITCQASQDISNYLSWYQQKPGKAPKLLIYYTNLLAEGVPSRFSGSGSGTDFTFTISSLQPEDIATYYCQQYYNYRTFGPGTKVDIKR
notes: Fab of m1; also called Fab fragment of ICOS.33 IgG1f S267E
